# Data: the DeepSol protein solubility set
# Test: soluble on expression in E. coli; label from the status in PepcDB or PDB records
row,Sequence,soluble on expression in E. coli
1,AIASCGKPQETYSTSSILTREQFEIQHQEEDTIGEQVIFIDGVAYNSRGFRVCGAPNQRGGFCARFGQCPFHKDKVTTFKMSEETVSEFPRQLLTESCNLLQNNERKFKNAWKLDEHHRFLVALKKFGHGNWRQIADYVETRSASQCQSHAQKYYLRKRKLASNANLKRSIFDLIDEDTLSVEIGEEDTWNIIQKCPSKEAQGSVRSRSKTLQRMSTDSSVESYPIRELSTVDSELSTLQTYKQASFFIRIFRNGVFSHGVDLELPNSLASFFIKAAQLLDMSVATKAYTRSGFEISSLHEVCPGDILWISSGEEFIFPSPVQYIET,soluble
2,MSLKRVSEMKFCFCGEKKDSRVKPLRVAIIGAGPAGLSAACSLACDGFDVHVYDKMPEPGGMVAFGIPEWRIPISKVRQAVKEIEELGVVFHMRTKVVYDSPKELGDEFAERFVSLEKLMKEYDAILIATGAWRPRILDIPGKELKGVENALQLLLRINLARIGYLPQTKMPSFEGKRVVVIGAGYTAVDVAKEAKLLGAKSVTIAYRRSLQDSYAKNEFKKLIKEGVKFLEYVTPVRIFGDENVREVEFAKTKVVRGSVITTEEKRTIPADVIIFAIGQIPTNPIKEVLCSNEDILKNAGIFFAGDVISPRNIGTAIREGRKVAEEIKAWLTEHAFLNIRLSYPVSLRDISKSATEGHHHHHH,soluble
3,MGHHHHHHSHRKRPLLAPLCNGLINSYEDKSNDFVCPICFDMIEEAYMTKCGHSFCYKCIHQSLEDNNRCPKCNYVVDNIDHLYPNFLVNELILKQKQRFEEKRFKLDHSVSSTNGHRWQIFQDWLGTDQDNLDLANVNLMLELLVQKKKQLEAESHAAQLQILMEFLKVARRNKREQLEQIQKELSVLEEDIKRVEEMSGLYSPVSED,not soluble
4,MIGVTSCISGDGKSFCSHNLARIYAISGKKTLLIRGDMRKAFNAPANLIPQGSMGLSQHLIGMATIDQIIHKGEIENLYQIIPGPVPPNASELVASQKMEEFIRIMKDKFEVVIMDSPPVGLVSDYMSVIKHIDANLYIVRYDYTPKETLEAIKDLKNKYPAQSHSIIFN,not soluble
5,MEPSGGEQEPGAVRFLDLPWEDVLLPHVLNRVPLRQLLRLQRVSRAFRSLVQLHLAGLRRFDAAQVGPQIPRAALARLLRDAEGLQELALAPCHEWLSDEDLVPVLARNPQLRSVALGGCGQLSRRALGALAEGCPRLQRLSLAHCDWVDGLALRGLADRCPALEELDLTACRQLKDEAIVYLAQRRGAGLRSLSLAVNANVGDAAVQELARNCPELHHLDLTGCLRVGSDGVRTLAEYCPVLRSLRVRHCHHVAESSLSRLRKRGVDIDVEPPLHQALVLLQDMAGFAPFVNLQV,soluble
6,MGSDKIHHHHHHMNLKDLENPGVWYRPAPFWSWNDKLCEEELLRQIDEMYEKGYGGFFMHSRVGLVTEYLSEEWMRLVRSCAEHARKLGMLAWLYDEDKWPSGFAGGIVPLEKPEHRHKYLTLLKKDQIKPEDEILKKIERDGEEFYVVKRVMKLGDPWFNGTCYVDLLSRETTEAFLRSTHERYKKSCGDLFRVSIPGIFTDEPTYLRVHHPKETTLPWTERFPEEFLRRKGYDIRDHLEELFFNVKDYMKVRYDFFDVATSLFIENFTIPYAKWCEENGIFMTGHYMAEDTLRGQVEWIGAAMPHYEYMQIPGIDKLARHLEQVVTIKQVSSAAEQLGKKWVLCETFGTTGQHVSFLHRKWIADWQAVLGVTYINPHLSLYSMRGERKRDYPPNLFYQQPWWKNERFLSDYFARLNHIVTQGKREVKVLMIHPISSAWCVYSKFDDEIDKLNELFDTITKELVANKIDFHFGDEMILSKHGRVKEAKLRVGEYEYEVVVLPPLLNLKSSTVELLNSLAENGGKVFVLKDFRYGRFFPERVEGKKGRIEFLKKARVFETLEDLIEELKPFFSVDVLDTKTKENAKAVIAQKRVLEDGSYLLFLANTDIDREVHCHLELKEKRKHTYAIDLFNFKLVELKENEFVMFPASSVCIWVTDEEVPAEDEKVVSTGVLLEKEFDFETALNDFEVKMNSFNVLPVDRVEYFEAGGRVFRNEFVSKIWYEFYRLPDGTPFRVEYSFEVRKKPQKLFLVVECAENLDRITVNGREVRYERKSCIFNEEQNFLDVNFGKMEITDLVREGKNTVVLEGRKENNITGPGCHTRVKDPENHRPTEVETIYLVGDFSLVNVDETRYVIDAPKIPDHRDITRDGYPFYVGSFTLKKIFECKKDPGKRYFLKLNGVEAASVEVILNGKFLGVLFWRPFMIDITDALRNGKNELQLVLTNTLFNLIEANHKADVLEETFRRPKSFIDFEHHTDRYILLPFGLENVAVLSSSSR,not soluble
7,VAPLGLSVPSDVELPPTAKMHAIIERTASFVCRQGAQFEIMLKAKQARNSQFDFLRFDHYLNPYYKFIQKAMKEGRYTVLAENKSDEKKKSGVS,soluble
8,MGSDKIHHHHHHMRKLAHNFYKPLAIGAPEPIRELPVRPERVVHFFPPHVEKIRARIPEVAKQVDVLCGNLEDAIPMDAKEAARNGFIEVVKATDFGDTALWVRVNALNSPWVLDDIAEIVAAVGNKLDVIMIPKVEGPWDIHFVDQYLALLEARHQIKKPILIHALLETAQGMVNLEEIAGASPRMHGFSLGPADLAASRGMKTTRVGGGHPFYGVLADPQEGQAERPFYQQDLWHYTIARMVDVAVAHGLRAFYGPFGDIKDEAACEAQFRNAFLLGCTGAWSLAPNQIPIAKRVFSPDVNEVLFAKRILEAMPDGSGVAMIDGKMQDDATWKQAKVIVDLARMIAKKDPDLAQAYGL,not soluble
9,MRKPTDTLPVNLQRRRLLCAAGALLLSPLAHAGAQREETLADDVASVMRSSVGSVNPPRLVFDNPKEGERWLSAMSARLARFVPEEEERRRLLVNIQYESSRAGLDTQIVLGLIEVESAFRQYAISGVGARGLMQVMPFWKNYIGKPAHNLFDIRTNLRYGCTILRHYRNLEKGNIVRALARFNGSLGSNKYPNAVLGAWRNRWQWR,not soluble
10,MSTDEERIYSIALTQIPGVGHIGAKRLVDGMGSATDVFRYRTELPDRLPGVNRAVVAALDSPQALKRAEQEYEFARNNRISCFTLADEDYPSRLRECDDAPVVLFFKGKANLNALHIINMVGTRNATDYGKHICVSFLQELQMLCPDVLVVSGLAYGIDINAHRSALSVELPTVGVLAHGLDRIYPSLHRKTAIDMLRQGGLLTEFLSGTNPDKHNFISRNRIVAGISDATIVVESAAKGGSLITADIAGSYHRDCFAFPGRVTDEYSKGCNQLIQDNKAVLLESASDFVKTMGWDSDLKSVKPETVQRNLFPDLSAEELRIVDILGKLGDLQINALMVQADIPINKISAILFELEMKGVIRVLAGGVYQLLR,not soluble
11,MGSDKIHHHHHHMASYSLVESNSFGSENWCLKLQPSYKHGLLTGLSNGEIRLLDWSTGKSVQKIKASETAINDMKVIGSDFSAGHLVSSASIDAVKVFDIRTNDRIAQIQNEANSPFISLDSRHGLLACGTELQGIDAAVYIYDIRKWDTPLRSLIDSHHDDVTCIKFHPSDVNILLSGSTDGYTNIYDLKQDEEEDALHQVINYASIHSCGWLSPKRIFTLSHMETFAIHELNDKSDELKEPQPLDFGDVREIWNCDYVVDIYPGLIATGKTQENCGELCLLPFKDEKVDTENGIVIPHAHGDEVVRDIFIPAQHSNMLYSCGEDGCVKIWENKQGPLDIPENFWDYSKKMNVLGDDDREGSINLDEPLIIQKESVSTRPRKEKHKKAKKHSMKSRFKPY,not soluble
12,MSLDEIKIEKLKKLDKKALNELIDVYMSGYEGLEEYGGEGRDYARNYIKWCWKKASDGFFVAKVGDKIVGFIVCDKDWFSKYEGRIVGAIHEFVVDKKFQGKGIGRKLLITCLDFLGKYNDTIELWVGEKNYGAMNLYEKFGFKKVGKSGIWVRMIKRQNLEGHHHHHH,soluble
13,MGSDKIHHHHHHMKTLCTHSLPKEKMPYLLRSGEGERYLFGRQVATVMANGRSTGDLFEIVLLSGGKGDAFPLHVHKDTHEGILVLDGKLELTLDGERYLLISGDYANIPAGTPHSYRMQSHRTRLVSYTMKGNVAHLYSVIGNPYDHAEHPPYASEEVSNERFAEAAAVADIVFLDEAKPACSAKLAELTELPDGAVPYVLESGEGDRLLTGDQLHRIVAAQKNTDGQFIVVSSEGPKGDRIVDHYHEYHTETFYCLEGQMTMWTDGQEIQLNPGDFLHVPANTVHSYRLDSHYTKMVGVLVPGLFEPFFRTLGDPYEGHIFPCEPQALRFDRILQNIEALDLKVMKP,not soluble
14,MREYKVVVLGSGGVGKSALTVQFVTGTFIEKYDPTIEDFYRKEIEVDSSPSVLEILDTAGTEQFASMRDLYIKNGQGFILVYSLVNQQSFQDIKPMRDQIVRVKRYEKVPLILVGNKVDLEPEREVMSSEGRALAQEWGCPFMETSAKSKSMVDELFAEIVRQMNYSSLPEKQDQCCTTCVVQ,not soluble
15,MISSPHKLTGDIMTKRTKRTRRLFSAEFKLEAAQLVLDQNYSVTEAAQAMNVGKSTMDKWVRQLREERQGKTPKASPMTPEQIEIRELKKKLARLEEHNEILKKATALLMSDSLNNSLEHHHHHH,soluble
16,MAHHHHHHMRCVRRSVLGSRGLKRPMFNYTRIFSMGITQHTFTGALLEDLRAGGCCGDQTEDNPGSSLRHGELDHFESPEAEAAHVEKVNTVVDDLFSRMPLPEDPMGAALAPTKEEMEEKAEWDVLKEVVRERYQRKIALKEAERVRIDKAMQHYRVDKDIEGGVSGVTGATGDSEKIRKKIERMKQEIVELERRLEAANHDDNL,not soluble
17,MMSLLAVGLVFGLAACSGTSDAKGKIVISGKKFTEQVILTHLLAEYVKANTDLDVEVKDSLGGAFMLQQAIENGDVDMYVEYTGTGYLNILKQPYDPAKTPEQIYNETKKLYKEKYNIAWLKPLGFNNTYALAMRRDLAEKLGVKTYSDLAKHSSSLTFGSDAEFFERSDGYDGLVDTYGFQFKKKVTIDPDLQYEAAKNSEIDVITAYTTDARIKKYDLVVLKDDKQYFPPYHAVPIIRQEVLDANPGLEKKLNKLANILTDEKMMELNGQVNLEGKQPREVALDFLKAEGLID,not soluble
18,SGARRMETDYNPVELSSMSGFEEGSELNGFEGADMKDMQLEAEAVVNDVLFAVNHMFVSKSMPCADDVAYINVETKERNRYCLELTEAGLRVVGYAFDQVEDHLQTPYHETVYSLLDTLSPAYREAFGNALLQRLEALKRDGQS,soluble
19,MAHHHHHHMNTFNYIRSPTGVHEVDGPPNDCVSTVRFSPSGCPYLLLGAASWDKTCRVWQVIHQPNAINIRSQPMTFAVSDAPILDMSFSADGRVFWGGCSKTATMWNLTTNQKIIVGSHDLPVSCIAHVSSNTGTEMLVTGSWDGRLRFWDLRQPMPIKEEILGEPVFGLDAQRSFPMAACVTGRKVHIFNLQTMMKTNELKPPPLLKFNLGCVACSPQKDGVVVGSSEGRLSFIPLQAEVGCTFKAHVLVEDNVLYMHQTNFCVISPRVPHMISGGGDGRIGCWDYKKRSIVGYGESETRLENRNKSISAGDISADGSLLAFARSYDWAMGKTGCIPNEPHSIHIRSAEWKSALS,not soluble
20,MFKKVLGLRHWNNNVVKIPPPAAESGANASDVVVDTPEPYERILCQKILMGISTIDIIRNAIIKSCEQLNIEKERINELNEQNDKARSSLKSLVEFITEIGTTSSDIGCRMGDLNTSLTQINACIKEIQKIANQTNLIAINSAIEAARVGDAGRGFSVISKEVKNLSEDVKHSSKSVSTLTSVIKDNTARVSEVLDNQQPVIDNITTNINQIVESIGIVIDKSLSMKSVMQYISTVQFLNIVKVDHVIWKMEVYKLLLNKDINSKITMHDQCRLGKWYYGFEGQQFSNYYSFRSLEAPHKEVHTAGHSALNYFAAGDMNAMSQELDRMERSSNEVVNQLEMLAVDLLKETTL,not soluble
